From PMC7611124 come the findings set out here.

Data set [1] concerns the target T1, NF-kB p50 (UniProt P19838 1-433). The experiment in a line: EMSA. In general terms: A gel shift assay detects complexes by their altered migration in electrophoresis.
Data set [2] addresses T1, NF-kB p50. Description: competition.

T1 sequence (P19838 1-433): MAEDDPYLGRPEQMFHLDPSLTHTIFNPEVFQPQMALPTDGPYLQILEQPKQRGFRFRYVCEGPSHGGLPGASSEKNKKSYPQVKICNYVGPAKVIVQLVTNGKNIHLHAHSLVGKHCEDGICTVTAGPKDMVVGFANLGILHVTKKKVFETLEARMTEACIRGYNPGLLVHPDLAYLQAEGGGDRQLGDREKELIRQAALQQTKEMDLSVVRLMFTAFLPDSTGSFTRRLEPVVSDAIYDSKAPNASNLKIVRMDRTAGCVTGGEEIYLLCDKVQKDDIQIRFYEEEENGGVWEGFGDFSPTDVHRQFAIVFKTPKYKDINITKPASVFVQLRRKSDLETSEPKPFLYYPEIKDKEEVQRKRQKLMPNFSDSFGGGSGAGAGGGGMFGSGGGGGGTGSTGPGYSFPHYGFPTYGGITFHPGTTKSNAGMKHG

B1: Probe C (rs28416813 C allele, IFNL3 5'UTR) (dsDNA)
DNA 1: CCCCTGCCCTCAGTGGGCAGCCTCTGCATTCCCTCAGCTCCCTTTCTCTCTGTGA
DNA 2: TCACAGAGAGAAAGGGAGCTGAGGGAATGCAGAGGCTGCCCACTGAGGGCAGGGG
modifications: BrdU (written T) at positions 5 and 34 of strand 1
Turning to B1, in data set [1], the binding result is given as “binds”.

B2: C-oligo NF-kB (consensus cold competitor) (dsDNA)
DNA 1: CCGCTGGGACTTTCCAGGA
DNA 2: TCCTGGAAAGTCCCAGCGG
With B2, in data set [2], the binding result was “binds”.
